# Data reported in patent US7981423B2, “Rage fusion proteins” (Transtech Pharma, Inc., priority 2004, dated 2011).
# Experiments:
# [1] = Pharmacokinetic profile of TTP-4000 after IV injection; type: in vivo, monkeys; conditions: single IV bolus 5 mg/kg; plasma; after saturation of ligands; FIG. 11
# Experimental: Following collection, the tubes were placed on wet ice (maximum 30 minutes) until centrifugation under refrigeration (at 2 to 8° C.) at 1500×g for 15 minutes. Each harvested plasma sample was then stored frozen (−70° C.±10° C.) until assayed for RAGE polypeptide using an ELISA at various time-points following the injection, as described in Example 6.
# Initially, 50 uL of the RAGE specific monoclonal antibody 1HB1011 at a concentration of 10 ug/mL in 1×PBS pH 7.3 is coated on plates via overnight incubation. When ready for use, plates are washed three times with 300 uL of 1× Imidazole-Tween wash buffer and blocked with 1% BSA. […] The samples are allowed to incubate at room temperature for one hour. After incubation, the plates are plates are washed three times. A Goat Anti-human IgG1 1 (Sigma A33 12) AP conjugate in 1×PBS with 1% BSA is added and allowed to incubate at room temperature for 1 hour. The plates are washed three times. Color was elucidated with paranitrophenylphosphate.
# Fc receptor = Fc receptor activation, TNF-α secretion from THP-1 cells; type: cell-based; conditions: FIG. 12
# Excerpt: Fc stimulation results in TNF-α secretion.
# male C57BL/6 mice = assay: Animal model of stroke (carotid/cerebral artery occlusion and reperfusion); type: in vivo, mouse; conditions: treated just prior to reperfusion
# Experimental: For example, the RAGE fusion proteins of the present invention may also be used to treat stroke. […] In this model, the […] of a mouse is ligated and then reperfased to form an infart. To assess the efficacy of RAGE fusion proteins to treat or prevent stroke, mice were treated with sRAGE or TTP-4000 or control immunoglobulin just prior to reperfusion.
# TTP-4000 was also compared to sRAGE in a disease relevant animal model of stroke. In this model, the […] of a mouse was ligated for 1 hour followed by 23 hours of reperfusion at which point the mice were sacrificed and the area of the infarct in the brain was assessed. […] After the nylon suture had been in place for 1 hour, the animal was re-anesthetized, rectal temperature was recorded and the suture was removed and the incision closed.
# Infarct volume was determined by anesthetizing the animals with an intraperitoneal injection of sodium pentobarbital (50 mg/kg) and then removing the brains. […] The infarct area in each section was determined with a computer-assisted image analysis system, consisting of a Power Macintosh computer equipped with a Quick Capture frame grabber card, Hitachi CCD camera mounted on a camera stand. […] The images were captured and the total area of infarct was determined over the sections. […] Summing the infarct volumes of the sections calculated the total infarct volume. […]
molecule,measurement,setting,value
TTP-4000: four domain RAGE fusion protein (SEQ ID NO: 32): human RAGE amino acids 1-251 linked to CH2 and CH3 domains of human IgG (protein) MAAGTAVGAWALVLSLWGAVVGAQNITARIGEPLVLKCKGAPKKPPQRLEWKLNTGRTEAWKVLSPQGGGPWDSVARVLPNGSLFLPAVGIQDEGIFRCQAMNRNGKETKSNYRVRVYQIPGKPEIVDSASELTAGVPNKVGTCVSEGSYPAGTLSWHLDGKPLVPNEKGVSVKEQTRRHPETGLFTLQSELMVTPARGGDPRPTFSCSFSPGLPRHRALRTAPIQPRVWEPVPLEEVQLVVEPEGGAVAPPSVFLFPPKPKDTLMISRTPEVTCVVVDVSHEDPEVKFNWYVDGVEVHNAKTKPREEQYNSTYRVVSVLTVLHQDWLNGKEYKCKVSNKALPAPIEKTISKAKGQPREPQVYTLPPSRDELTKNQVSLTCLVKGFYPSDIAVEWESNGQPENNYKTTPPVLDSDGSFFLYSKLTVDKSRWQQGNVFSCSVMHEALHNHYTQKSLSLSPGK,terminal half-life,[1],greater than 300 hours
same,stimulation of TNF-α release from cells (in words),Fc receptor; conditions where human IgG stimulation of TNF-α release is detected,does not stimulate TNF-α release
same,TNF generated,"Fc receptor; well precoated with 10 μg/well heat aggregated protein, THP-1 cells, 24 hours",less than 2 ng/well
same,reduction in infarct volume compared to sRAGE (in words),male C57BL/6 mice,significantly greater reduction in infarct volume
